Columns and labels:
[1] = target: FcgammaRIIB (CD32b) (human) (UniProt P31994); assay: SPR equilibrium fit; reference WT IgG1
[2] = target: FcgammaRIIIA (CD16a), F allotype (human) (UniProt P08637); assay: SPR equilibrium fit; reference WT IgG1
Chain of FcgammaRIIIA (CD16a), F allotype (human) (P08637 17-208 limits assumed): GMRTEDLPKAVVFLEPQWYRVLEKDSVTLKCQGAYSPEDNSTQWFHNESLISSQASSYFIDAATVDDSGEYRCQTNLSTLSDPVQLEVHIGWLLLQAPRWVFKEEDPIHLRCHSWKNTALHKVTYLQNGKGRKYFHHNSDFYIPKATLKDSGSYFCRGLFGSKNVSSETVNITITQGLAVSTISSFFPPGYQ

Chain of FcgammaRIIB (CD32b) (human) (P31994 43-217 limits assumed): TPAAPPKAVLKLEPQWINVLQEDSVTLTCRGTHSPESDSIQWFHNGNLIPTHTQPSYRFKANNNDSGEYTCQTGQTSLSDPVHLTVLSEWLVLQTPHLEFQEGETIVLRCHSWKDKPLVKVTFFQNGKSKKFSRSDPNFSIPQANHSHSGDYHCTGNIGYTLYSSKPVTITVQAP

Ratio WT/Variant of kD [1] | Ratio WT/Variant of kD [2] | Substance
1.68 | 1.28 | Control 1 (K409D_K392D/D399K_D356K) (antibody)
1.13 | 1.1 | Control 2 (T366S_L368A_Y407V/T366W) (antibody)

— patent publication US20210277150A1
